Measured values from US20230357354A1 (ENCEFA, published 2023).

B1: CD31 peptide NSRDQNFVILEFPVE (linear) (peptide)
peptide: NSRDQNFVILEFPVE
B2: looped peptide CRDQNFVILEFPVEEQC (SEQ ID NO: 9), free peptide (peptide)
peptide: CRDQNFVILEFPVEEQC

Legend:
[1] = target: human CD38 on cells (Daudi cells; CD38^+ Jurkat T cells) (human, UniProt P28907 1-300); assay: cell-based or functional assay
[2] = target: T1, recombinant human CD38 (Acrobio, ref CD8-H5224) (human, UniProt P28907 43-300); assay: SPR, Biacore 3000, CM5 chip, recombinant human CD38
T1 construct: Bought protein used in Biacore
Procedure: Binding affinity was measured and reported by the equilibrium dissociation constant (KD). Recombinant human CD38 (Acrobio, ref CD8-H5224) dissolved in milliQ water was used.

Binder | EC50, glucose uptake (2-NBDG fluorescence), human Daudi cells [1] [nM] | Kd [2] [nM]
B1 | ~13 | 2.3
B2 | ~0.1 | –
